According to publication PMC5697745:
pKd: −log10 of the molar value.

Molecular target: FAM-AIP-I, fluorescein-tagged AIP-I (Staphylococcus aureus (group I))
Experiment: fluorescence polarisation

Q: With “AgrC-I^R238H, constitutively active full-length AgrC-I mutant, in nanodiscs (receptor)” as the substance, how does the pKd read?
A: 7.29
